Laboratory results from patent US20230140200A1, “COMPOSITIONS AND METHODS FOR DETECTING CELLS UNDERGOING FERROPTOSIS USING AN ANTIBODY” (THE TRUSTEES OF COLUMBIA UNIVERSITY IN THE CITY OF NEW YORK, priority 2020, published 2023).
Entries after “also recorded” stand apart in the source; their conditions may differ.

Experiments:
HT-1080 cells = test: Flow cytometry staining without permeabilization; assay type: cell-based, human; conditions: vs DMSO
[1] = test system: B cell lymphoma mouse xenograft tumor tissue (SU-DHL-6 cells); test: Staining of B cell lymphoma mouse xenograft tumor tissue sections; conditions: 40 mg/kg IKE once daily IP for 14 days
Experimental: (§1) Tumor tissues were fixed in 4% paraformaldehyde (PFA) for 24 h at 4° C. followed by washing with PBS three times. The tissues were perfused in 30% sucrose for 24 h at 4° C. for cryo-protection. The samples were embedded in OCT cryostat sectioning medium, and then moved directly into a cryostat. After equilibration of temperature, frozen tumor tissues were cut into 5 μm thick sections. Tissue sections were mounted on to poly-L-lysine coated slides by placing the cold sections onto warm slides. Slides were stored at −80° C. until staining. For staining, slides were warmed to room temperature followed by washing with PBS twice. A hydrophobic barrier pen was used to draw a circle on each slide. The slides were permeabilized with PBS with 0.4% Triton X-100 (PBT) twice before non-specific-binding blocking by incubating the sections with 10% goat serum (ThermoFisher 50197Z) for 30 min at room temperature. […] All images were captured on a Zeiss LSM 800 confocal microscope at Plan-Apochromat 63×/1.40 Oil DIC objective with constant laser intensity for all analyzed samples. The intensity above threshold of the fluorescent signal of the bound antibodies was analyzed using NIH ImageJ software (ImageJ, RRID:SCR_003070). Data were expressed as fold change comparing with the vehicle. […]

[2] = test system: HCC mouse xenograft tumor tissue (Huh-7 cells); test: Staining of hepatocellular carcinoma (HCC) mouse xenograft tumor tissue sections; conditions: 50 mg/kg IKE once daily IP for 2 days
Experimental: as §1

Huh-7 cells = test: Immunofluorescence in Huh-7 cells; assay type: cell-based; conditions: 1 μM RSL3, 4 h

B1: 3F3-FMA: Murine monoclonal IgG1 raised against ferroptotic membrane fractions; antigen is transferrin receptor protein 1 (TfR1) (antibody, V domains shown)
VH: EVLLQQSGTELVRPGALVKLSCKASGFNIQDLYIHWVKQRPEQGLEWIGWIDPETDNTIYDPKFQGKASITADTSSNTAYLQLSSLTSEDTAMYYCSTGLLQWYFDVWGAGTAVTVSS
VL: DIVMTQSPSSLAMSIGQKVTMRCKSSQSLLNSYNQKNCLAWYQQKPGQSPKLLLYFVSTRESGVPDRFIGSGSGTDFTLTISSVQAEDLADYFCQQHYSTPLTFGAGTKLELK
antibody staining intensity by flow cytometry in RSL3-treated cells (HT-1080 cells; 1 μM RSL3, 4 h): increased intensities
antibody staining intensity by flow cytometry in STS-induced apoptosis (HT-1080 cells; 1 μM STS, 6 h): decreased intensity; also recorded: decreased intensities
antibody staining intensity in IKE-treated vs vehicle tumor tissue [1]: did not detect its antigen; also recorded: no difference
antibody staining intensity in IKE-treated vs vehicle tumor tissue [2]: increased intensities; also recorded: difference in intensities
3F3-FMA staining upon ferroptosis induction (Huh-7 cells): concentrated at the cell boundaries and became brighter
